Data as given in patent publication US10286050B2 (The United States of America, as represented by the …, priority 2013, dated 2019).
Entries after “also recorded” stand apart in the source; their conditions may differ.

Tests used:
[1] = Storage stability of vialed product; format: physicochemical
Description: Stability and Storage: KLH-HMW is stable for at least 12 months when stored at 2 to 8° C.
(§1) Stability and Storage: The finished injectable dosage forms are stored in the freezer (−70′C) for long-term storage. Intact vials are stable for at least 6 months when stored at controlled room temperature (15° C.-30° C.) or in the refrigerator (2° C.-8° C.), and for at least 36 months when stored in the freezer (−10° C. to −25° C. and −70° C.). The peptide vial contains no preservatives; once the peptide vial is entered, unused peptide solution is discarded after 3 hours.
as §1, with “(−70° C.)” for “(−70′C)”, “C.), at least 9 months when stored” for “C.) or”

[2] = target: HLA-A2 (Homo sapiens, UniProt P04439, D140Y/D185E/D98H/E176V/E277Q/G131W/G231S/I119V/I121R/I166T/I218V/L300P/L318F/N151K/N90K/P208A/P217A/Q86G/Q94H/R138H/R169H/T345S); details: cited from earlier work
[3] = system: A2K^b transgenic mice (expressing human HLA-A*0201); details: cited from earlier work
[4] = system: human T cells; details: cited from earlier work; for recognition of peptide-pulsed targets by peptide-specific human T cells: human T cells specific for the named peptide
[5] = controlled room temperature (15° C.-30° C.)
[6] = freezer (−10° C. to −25° C. and −70° C.)

Row | Sequence | stability of intact vials [1, 5] | stability of intact vials [1, 6] | stability of intact vials ([1]; refrigerator (2° C.-8° C.)) | binding affinity relative to TARP 29-37 ([2]; HLA-A2 epitopes, fold greater than TARP 29-37) | level of CD8+ T cell response ([3]; A2K^b transgenic mice) | immunogenicity in A2K^b transgenic mice ([3]; dendritic cells pulsed with the peptides or DNA encoding the peptides) | recognition of peptide-pulsed targets by peptide-specific human T cells [4] | change of binding affinity to HLA-A2 by epitope enhancement ([2]; amino acid substitution versus wild-type peptide) | percentage of TARP-specific CD8+ T cells ([3]; A2K^b transgenic mice, versus wild type sequence) | immunogenicity in human T cells ([4]; human cells)
1 | FVFLRNFSL [TARP 27-35] | at least 6 months | at least 36 months | at least 6 months | 10 times | higher level of CD8+ T cell response than TARP29-37 | immunogenic | recognized targets pulsed with that sequence | – | – | –
2 | FLRNFSLMV [TARP 29-37-9V] | at least 6 months | at least 36 months | at least 9 months | – | – | – | recognized targets pulsed with all three peptides equally well | lower binding affinity to HLA-A2 than TARP29-37-3A; also recorded: did enhance the binding affinity compared with the wild-type peptide | higher percentage of TARP-specific CD8^+ T cells than the wild type sequence | immunogenic
